Data: paper PMC6004067

Target: GST-TBP, GST-tagged full-length human TBP (human) (UniProt P20226)
Assay: pull-down; GST pull-down: GST-TBP, GST-TFIIB or TBP fragments on glutathione beads; analytes in buffer B2 (150 mM NaCl), 1 h at 4°C, four washes, Western blot

Chain of GST-TBP, GST-tagged full-length human TBP (human) (P20226 whole entry, the tested form may be a part): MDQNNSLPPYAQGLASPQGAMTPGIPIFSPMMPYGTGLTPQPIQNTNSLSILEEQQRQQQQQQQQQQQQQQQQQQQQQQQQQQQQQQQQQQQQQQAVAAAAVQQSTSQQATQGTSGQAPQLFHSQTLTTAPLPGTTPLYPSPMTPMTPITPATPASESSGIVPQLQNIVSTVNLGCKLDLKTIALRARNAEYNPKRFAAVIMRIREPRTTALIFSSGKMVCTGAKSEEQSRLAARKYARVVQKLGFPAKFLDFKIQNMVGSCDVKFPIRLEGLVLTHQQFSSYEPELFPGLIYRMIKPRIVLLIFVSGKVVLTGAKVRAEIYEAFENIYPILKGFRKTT

With “SNAP complex (SNAPc) (from UniProt Q5SXM2 1-1469; Q92966 1-411; Q13487 1-334; Q16533 1-368; O75971 1-98)” the increase in SNAPc recruitment to GST-TBP on addition of TFIIA was 60%.
